These results are taken from PMC5388505, “Interferon-inducible ribonuclease ISG20 inhibits hepatitis B virus replication through directly binding to the epsilon stem-loop structure of viral RNA”.

Data set [1] deals with T1, ISG20 (wild type) (UniProt Q96AZ6 1-181). As to the kind of experiment: EMSA; no Mn2+; bottom 4 bp stated indispensable for binding; ISG20 EMSA: 20 mM HEPES, 100 mM KCl, 1 mM DTT, 0.5 mg/ml BSA, 10% glycerol, 0.05 ug/ul poly[dI-dC], 30 C 30 min, 100 ng RNA, pH not stated; Pol EMSA: 20 mM Tris pH 7.5, 2 mM MgCl2, 15 mM NaCl, 20 mM KCl, 4 mM DTT, yeast tRNA, 30 C 1 h. The conditions noted are these: protein: recombinant; label: 5'-32P; hairpin. (In general: A gel shift assay detects complexes by their altered migration in electrophoresis.)

For the next data set, the target named is ISG20 D94G (UniProt Q96AZ6 1-181, D94G). Put plainly: EMSA; no Mn2+; complex with altered mobility; ISG20 EMSA: 20 mM HEPES, 100 mM KCl, 1 mM DTT, 0.5 mg/ml BSA, 10% glycerol, 0.05 ug/ul poly[dI-dC], 30 C 30 min, 100 ng RNA, pH not stated; Pol EMSA: 20 mM Tris pH 7.5, 2 mM MgCl2, 15 mM NaCl, 20 mM KCl, 4 mM DTT, yeast tRNA, 30 C 1 h. Conditions: protein: recombinant; tags: 6xHis (pRSET A); label: 5'-32P; stem-loop with bulge and apical loop.

The target in the next data set is ISG20 dExoIII (UniProt Q96AZ6 1-181, del147-157). Put plainly: EMSA; no Mn2+; binding completely lost; ISG20 EMSA: 20 mM HEPES, 100 mM KCl, 1 mM DTT, 0.5 mg/ml BSA, 10% glycerol, 0.05 ug/ul poly[dI-dC], 30 C 30 min, 100 ng RNA, pH not stated; Pol EMSA: 20 mM Tris pH 7.5, 2 mM MgCl2, 15 mM NaCl, 20 mM KCl, 4 mM DTT, yeast tRNA, 30 C 1 h. The conditions noted are these: protein: recombinant; tags: 6xHis (pRSET A); label: 5'-32P; stem-loop with bulge and apical loop.

Data set [2] has as its target T1, ISG20 (wild type). Put plainly: EMSA; no Mn2+; dose-dependent; supershift with anti-His; competed by 10-40x cold epsilon; ISG20 EMSA: 20 mM HEPES, 100 mM KCl, 1 mM DTT, 0.5 mg/ml BSA, 10% glycerol, 0.05 ug/ul poly[dI-dC], 30 C 30 min, 100 ng RNA, pH not stated; Pol EMSA: 20 mM Tris pH 7.5, 2 mM MgCl2, 15 mM NaCl, 20 mM KCl, 4 mM DTT, yeast tRNA, 30 C 1 h. Conditions: protein: recombinant; label: 5'-32P; stem-loop with bulge and apical loop.

A further data set addresses ISG20 dExoII (UniProt Q96AZ6 1-181, del86-101). Put plainly: EMSA; no Mn2+; binding not reduced, even increased vs wild type; ISG20 EMSA: 20 mM HEPES, 100 mM KCl, 1 mM DTT, 0.5 mg/ml BSA, 10% glycerol, 0.05 ug/ul poly[dI-dC], 30 C 30 min, 100 ng RNA, pH not stated; Pol EMSA: 20 mM Tris pH 7.5, 2 mM MgCl2, 15 mM NaCl, 20 mM KCl, 4 mM DTT, yeast tRNA, 30 C 1 h. The conditions noted are these: protein: recombinant; tags: 6xHis (pRSET A); label: 5'-32P; stem-loop with bulge and apical loop.

A further data set has as its target ISG20 dExoI (UniProt Q96AZ6 1-181, del7-16). The description is as above. Conditions: protein: recombinant; tags: 6xHis (pRSET A); label: 5'-32P; stem-loop with bulge and apical loop.
Data set [3] concerns the target T1, ISG20 (wild type). Put plainly: EMSA; no Mn2+; ISG20 EMSA: 20 mM HEPES, 100 mM KCl, 1 mM DTT, 0.5 mg/ml BSA, 10% glycerol, 0.05 ug/ul poly[dI-dC], 30 C 30 min, 100 ng RNA, pH not stated; Pol EMSA: 20 mM Tris pH 7.5, 2 mM MgCl2, 15 mM NaCl, 20 mM KCl, 4 mM DTT, yeast tRNA, 30 C 1 h. Conditions: protein: recombinant; label: 5'-32P; hairpin.

B1: Lower stem d4bp + bulge (LSd4+B) (structured_RNA)
RNA: CAUGUCCUACUGUUCUGGGGCAUG
B1: in the data set with ISG20 (wild type) [1], the binding result was “no binding”.

B2: HBV epsilon full length (FL) (structured_RNA)
RNA: CUUGUUCAUGUCCUACUGUUCAAGCCUCCAAGCUGUGCCUUGGGUGGCUUUGGGGCAUGGACAUC
B2: the binding result was “binds” in the data set with ISG20 D94G; “no binding” with ISG20 dExoIII; “binds” in the data set with ISG20 (wild type) [2]; “binds” with ISG20 dExoII; “binds” with ISG20 dExoI.

B3: Lower stem + bulge (LS+B) (structured_RNA)
RNA: CUUGUUCAUGUCCUACUGUUCUGGGGCAUGGACAUC
Consider B3, for which the binding result with ISG20 (wild type) [3] was “binds”.

B4: Lower stem + bulge mutant (LS+Bm) (structured_RNA)
RNA: CUUGUUCAUGUCCUACUAAAAUGGGGCAUGGACAUC
Turning to B4, in the data set with ISG20 (wild type) [3], the binding result is recorded as “binds”.

B5: Upper stem + loop (US+L) (structured_RNA)
RNA: UCAAGCCUCCAAGCUGUGCCUUGGGUGGCUUUG
As for B5, the binding result in the data set with ISG20 (wild type) [3] is “no binding”.
